{
  "source": "paper PMC8067440",
  "about": "(Journal of Personalized Medicine, 2021)",
  "molecules": {"B1": {"name": "alanine:glyoxylate aminotransferase, native dimeric form encoded by the major allele (DMa), recombinant purified (enzyme, human, UniProt P21549 1-392, looked up)", "chain": "MASHKLLVTPPKALLKPLSIPNQLLLGPGPSNLPPRIMAAGGLQMIGSMSKDMYQIMDEIKEGIQYVFQTRNPLTLVISGSGHCALEAALVNVLEPGDSFLVGANGIWGQRAVDIGERIGARVHPMTKDPGGHYTLQEVEEGLAQHKPVLLFLTHGESSTGVLQPLDGFGELCHRYKCLLLVDSVASLGGTPLYMDRQGIDILYSGSQKALNAPPGTSLISFSDKAKKKMYSRKTKPFSFYLDIKWLANFWGCDDQPRMYHHTIPVISLYSLRESLALIAEQGLENSWRQHREAAAYLHGRLQALGLQLFVKDPALRLPTVTTVAVPAGYDWRDIVSYVIDHFDIEIMGGLGPSTGKVLRIGLLGCNATRENVDRVTEALRAALQHCPKKKL", "notes": "human alanine:glyoxylate aminotransferase (AGT), major allele (Pro11, Ile340); bacterial construct pAGT-Ma; Homodimer in its native state; Used as apo-form and as holo-form (with PLP); also called AGT; AGT-Ma; source: E. coli BL21(DE3), purified (HisPrep FF)"}, "B2": {"name": "artificial monomeric form of alanine:glyoxylate aminotransferase on the minor allele (MMi), R118A/F238S/F240S, recombinant purified (enzyme, human, UniProt P21549 1-392, looked up)", "chain": "B1 chain with P11L, R118A, F238S, F240S, I340M", "notes": "human alanine:glyoxylate aminotransferase (AGT), minor allele (Pro11Leu, Ile340Met), with the interfacial mutations R118A/F238S/F240S on pAGT-Mi; Used as apo-form and as holo-form (with PLP); source: E. coli BL21(DE3), purified (HisPrep FF)"}, "B3": {"name": "alanine:glyoxylate aminotransferase, native dimeric form encoded by the minor allele (DMi), recombinant purified (enzyme, human, UniProt P21549 1-392, looked up)", "chain": "B1 chain with P11L, I340M", "notes": "human alanine:glyoxylate aminotransferase (AGT), minor allele (Pro11Leu, Ile340Met); bacterial construct pAGT-Mi; Homodimer in its native state; Used as apo-form and as holo-form (with PLP); also called AGT-Mi; source: E. coli BL21(DE3), purified (HisPrep FF)"}},
  "key": {"[1]": {"molecular_target": "artificial monomeric form of alanine:glyoxylate aminotransferase on the major allele (MMa), R118A/F238S/F240S, recombinant purified (human) (UniProt P21549)", "assay": "SEC; apo-form; Superdex 200 10/300 GL, room temperature, KP 0.1 M, pH 7.4; samples at different concentrations incubated overnight at 25 °C; percent dimer from peak areas fitted; dimer to monomers"}, "[2]": {"molecular_target": "artificial monomeric form of alanine:glyoxylate aminotransferase on the major allele (MMa), R118A/F238S/F240S, recombinant purified (human) (UniProt P21549)", "assay": "SEC; holo-form, in the presence of saturating PLP; Superdex 200 10/300 GL, room temperature, KP 0.1 M, pH 7.4; samples at different concentrations incubated overnight at 25 °C; percent dimer from peak areas fitted; dimer to monomers"}, "AGT (DMa, major allele) [3]": {"molecular_target": "T1, AGT (DMa, major allele) (Homo sapiens, UniProt P21549)", "T1 construct": "gene AGXT; full length, expressed in E. coli BL21(DE3), purified on HisPrep FF (His-tagged, removal not mentioned)", "T1 sequence (P21549 1-392)": "B1 chain", "assay": "not described here for DMa", "type": "binding", "conditions": "read-out: KD(PLP)", "from_the_text": "not described here for DMa on AGT (DMa, major allele; rows DMi, MMa, MMi)"}, "AGT (DMa, major allele) [4]": {"molecular_target": "T2, AGT (DMa, major allele) (Homo sapiens, UniProt P21549, F238S/F240S/I340M/P11L/R118A)", "T2 construct": "gene AGXT; full length, expressed in E. coli BL21(DE3), purified on HisPrep FF (His-tagged, removal not mentioned)", "T2 sequence (P21549 1-392 P11L/R118A/F238S/F240S/I340M)": "B1 chain with P11L, R118A, F238S, F240S, I340M", "assay": "not described in detail here for MMi", "type": "binding", "conditions": "read-out: KD(PLP)", "from_the_text": "not described in detail here for MMi on AGT (DMa, major allele; rows DMi, MMa, MMi)"}, "AGT (DMa, major allele) [5]": {"molecular_target": "T3, AGT (DMa, major allele) (Homo sapiens, UniProt P21549, F238S/F240S/R118A)", "T3 construct": "gene AGXT; full length, expressed in E. coli BL21(DE3), purified on HisPrep FF (His-tagged, removal not mentioned)", "T3 sequence (P21549 1-392 R118A/F238S/F240S)": "B1 chain with R118A, F238S, F240S", "assay": "CD signal at […] nm, tight-binding quadratic fit", "conditions": "read-out: KD(PLP)"}, "AGT (DMa, major allele) [6]": {"molecular_target": "T4, AGT (DMa, major allele) (Homo sapiens, UniProt P21549, I340M/P11L)", "T4 construct": "gene AGXT; full length, expressed in E. coli BL21(DE3), purified on HisPrep FF (His-tagged, removal not mentioned)", "T4 sequence (P21549 1-392 P11L/I340M)": "B1 chain with P11L, I340M", "assay": "not described here for DMi", "type": "binding", "conditions": "read-out: KD(PLP)", "from_the_text": "not described here for DMi on AGT (DMa, major allele; rows DMi, MMa, MMi)"}, "[7]": {"molecular_target": "T5, DMa-FlAsH (row MMa-FlAsH) (Homo sapiens, UniProt P21549, R118A/F238S/F240S/INS254CCPGCC)", "T5 construct": "gene AGXT; full length with CCPGCC FlAsH motif inserted in a surface loop, expressed in E. coli BL21(DE3), purified on HisPrep FF (His-tagged)", "T5 sequence (P21549 with tags, fused parts or gaps R118A/F238S/F240S/INS254CCPGCC)": "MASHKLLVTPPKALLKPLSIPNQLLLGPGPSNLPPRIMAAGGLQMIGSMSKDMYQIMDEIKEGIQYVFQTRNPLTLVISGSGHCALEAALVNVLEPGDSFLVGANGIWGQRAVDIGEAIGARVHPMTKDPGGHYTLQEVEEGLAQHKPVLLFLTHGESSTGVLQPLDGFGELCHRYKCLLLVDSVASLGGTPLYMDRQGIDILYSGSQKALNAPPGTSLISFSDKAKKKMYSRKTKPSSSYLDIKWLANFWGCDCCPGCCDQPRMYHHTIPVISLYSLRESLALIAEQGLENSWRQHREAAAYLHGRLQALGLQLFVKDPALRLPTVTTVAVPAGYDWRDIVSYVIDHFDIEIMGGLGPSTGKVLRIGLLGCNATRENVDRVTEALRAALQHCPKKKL", "assay": "CD signal at […] nm, tight-binding quadratic fit", "conditions": "10 μM apoenzyme, 24 h incubation, PLP 1–300 μM"}, "[8]": {"molecular_target": "T6, DMa-FlAsH (row MMa-FlAsH) (Homo sapiens, UniProt P21549, INS254CCPGCC)", "T6 construct": "gene AGXT; full length with CCPGCC FlAsH motif inserted in a surface loop, expressed in E. coli BL21(DE3), purified on HisPrep FF (His-tagged)", "T6 sequence (P21549 with tags, fused parts or gaps INS254CCPGCC)": "T5 sequence (P21549 with tags, fused parts or gaps R118A/F238S/F240S/INS254CCPGCC) with A118R, S238F, S240F", "assay": "intrinsic fluorescence quenching of apoenzyme, tight-binding quadratic fit", "conditions": "0.1 μM apoenzyme, 24 h incubation, PLP 0.01–10 μM", "protocol": "intrinsic fluorescence quenching of apoenzyme, tight-binding quadratic fit on DMa-FlAsH (row MMa-FlAsH) | The KD(PLP) of DMa-FlAsH was calculated by measuring the intrinsic fluorescence quenching"}, "[9]": {"molecular_target": "the molecule itself", "assay": "SEC; holo-form, in the presence of saturating PLP; Superdex 200 10/300 GL, room temperature, KP 0.1 M, pH 7.4; samples at different concentrations incubated overnight at 25 °C; percent dimer from peak areas fitted; dimer to monomers"}, "[10]": {"molecular_target": "the molecule itself", "assay": "SEC; apo-form; Superdex 200 10/300 GL, room temperature, KP 0.1 M, pH 7.4; samples at different concentrations incubated overnight at 25 °C; percent dimer from peak areas fitted; dimer to monomers"}},
  "note": "Substitutions are numbered along the chain they refer to. Names and notes keep the numbering of the source.",
  "data": [
    {"molecule": "artificial monomeric form of alanine:glyoxylate aminotransferase on the major allele (MMa), R118A/F238S/F240S, recombinant purified (from UniProt P21549 1-392) (enzyme)", "values": [
      {"measurement": "Kd", "setting": "[1]", "result": 4100, "unit": "nM"},
      {"measurement": "Kd", "setting": "[2]", "result": 1500, "unit": "nM"}
    ]},
    {"molecule": "Cc1ncc(COP(=O)(O)O)c(C=O)c1O", "note": "[PLP]", "values": [
      {"measurement": "Kd", "setting": "AGT (DMa, major allele) [3]", "result": "270 ± 30", "unit": "nM"},
      {"measurement": "Kd", "setting": "AGT (DMa, major allele) [4]", "result": "4400 ± 500", "unit": "nM"},
      {"measurement": "Kd", "setting": "AGT (DMa, major allele) [5]", "result": "3200 ± 600", "unit": "nM"},
      {"measurement": "Kd", "setting": "AGT (DMa, major allele) [6]", "result": "260 ± 20", "unit": "nM"},
      {"measurement": "Kd", "setting": "[7]", "result": "7200 ± 1100", "unit": "nM"},
      {"measurement": "Kd", "setting": "[8]", "result": "250 ± 30", "unit": "nM"}
    ]},
    {"molecule": "B1", "values": [
      {"measurement": "Kd", "setting": "[9]", "result": "< 300", "unit": "nM"},
      {"measurement": "Kd", "setting": "[10]", "result": "< 300", "unit": "nM"}
    ]},
    {"molecule": "B2", "values": [
      {"measurement": "Kd", "setting": "[9]", "result": "9400 ± 500", "unit": "nM"},
      {"measurement": "Kd", "setting": "[10]", "result": "80000 ± 1000", "unit": "nM"}
    ]},
    {"molecule": "B3", "values": [
      {"measurement": "Kd", "setting": "[9]", "result": "< 300", "unit": "nM"},
      {"measurement": "Kd", "setting": "[10]", "result": "< 300", "unit": "nM"}
    ]}
  ]
}
